Among the data in patent US5543308 are activity (units/g cells) values, retold here.

Data set [1] has as its system FseI restriction endonuclease (from pRMFseR1, NEB#918, His at position 2) T2H (Frankia species NRRL 18528). Nature of the data set: cleavage_in_vitro. The note with it: crude extract, NEBuffer 1, 30 C, 1 h; estimated titer.
For data set [2], the system named is FseI restriction endonuclease (from pRMFseR2, NEB#943, ATCC 69707) (Frankia species NRRL 18528). As to the kind of experiment: cleavage_in_vitro. The note with it: crude extract; estimated titer; substrate inferred from section 7.

Take Adenovirus-2 DNA: the activity (units/g cells) in data set [1] and in data set [2] was greater than 10000 in each case.
